B1: Melanophilin (Homo sapiens), Q9BV36 (parent)
chain: MGKKLDLSKLTDEEAQHVLEVVQRDFDLRRKEEERLEALKGKIKKESSKRELLSDTAHLNETHCARCLQPYQLLVNSKRQCLECGLFTCKSCGRVHPEEQGWICDPCHLARVVKIGSLEWYYEHVKARFKRFGSAKVIRSLHGRLQGGAGPELISEERSGDSDQTDEDGEPGSEAQAQAQPFGSKKKRLLSVHDFDFEGDSDDSTQPQGHSLHLSSVPEARDSPQSLTDESCSEKAAPHKAEGLEEADTGASGCHSHPEEQPTSISPSRHGALAELCPPGGSHRMALGTAAALGSNVIRNEQLPLQYLADVDTSDEESIRAHVMASHHSKRRGRASSESQIFELNKHISAVECLLTYLENTVVPPLAKGLGAGVRTEADVEEEALRRKLEELTSNVSDQETSSEEEEAKDEKAEPNRDKSVGPLPQADPEVGTAAHQTNRQEKSPQDPGDPVQYNRTTDEELSELEDRVAVTASEVQQAESEVSDIESRIAALRAAGLTVKPSGKPRRKSNLPIFLPRVAGKLGKRPEDPNADPSSEAKAMAVPYLLRRKFSNSLKSQGKDDDSFDRKSVYRGSLTQRNPNARKGMASHTFAKPVVAHQS

Variants of: B1
Conditions: with rb27a_human RAB27A

| effect of a mutation on the interaction | Variant |
| --- | --- |
| disrupting interaction | MGKKLDLSKLTDEEAQHVLEVVQRDFDLRRKEEEFLEALKGKIKKESSKRELLSDTAHLNETHCARCLQPYQLLVNSKRQCLECGLFTCKSCGRVHPEEQGWICDPCHLARVVKIGSLEWYYEHVKARFKRFGSAKVIRSLHGRLQGGAGPELISEERSGDSDQTDEDGEPGSEAQAQAQPFGSKKKRLLSVHDFDFEGDSDDSTQPQGHSLHLSSVPEARDSPQSLTDESCSEKAAPHKAEGLEEADTGASGCHSHPEEQPTSISPSRHGALAELCPPGGSHRMALGTAAALGSNVIRNEQLPLQYLADVDTSDEESIRAHVMASHHSKRRGRASSESQIFELNKHISAVECLLTYLENTVVPPLAKGLGAGVRTEADVEEEALRRKLEELTSNVSDQETSSEEEEAKDEKAEPNRDKSVGPLPQADPEVGTAAHQTNRQEKSPQDPGDPVQYNRTTDEELSELEDRVAVTASEVQQAESEVSDIESRIAALRAAGLTVKPSGKPRRKSNLPIFLPRVAGKLGKRPEDPNADPSSEAKAMAVPYLLRRKFSNSLKSQGKDDDSFDRKSVYRGSLTQRNPNARKGMASHTFAKPVVAHQS [R35F] |
| disrupting interaction | MGKKLDLSKLTDEEAQHVLEVVQRDFDLRRKEEEKLEALKGKIKKESSKRELLSDTAHLNETHCARCLQPYQLLVNSKRQCLECGLFTCKSCGRVHPEEQGWICDPCHLARVVKIGSLEWYYEHVKARFKRFGSAKVIRSLHGRLQGGAGPELISEERSGDSDQTDEDGEPGSEAQAQAQPFGSKKKRLLSVHDFDFEGDSDDSTQPQGHSLHLSSVPEARDSPQSLTDESCSEKAAPHKAEGLEEADTGASGCHSHPEEQPTSISPSRHGALAELCPPGGSHRMALGTAAALGSNVIRNEQLPLQYLADVDTSDEESIRAHVMASHHSKRRGRASSESQIFELNKHISAVECLLTYLENTVVPPLAKGLGAGVRTEADVEEEALRRKLEELTSNVSDQETSSEEEEAKDEKAEPNRDKSVGPLPQADPEVGTAAHQTNRQEKSPQDPGDPVQYNRTTDEELSELEDRVAVTASEVQQAESEVSDIESRIAALRAAGLTVKPSGKPRRKSNLPIFLPRVAGKLGKRPEDPNADPSSEAKAMAVPYLLRRKFSNSLKSQGKDDDSFDRKSVYRGSLTQRNPNARKGMASHTFAKPVVAHQS [R35K] |
| disrupting interaction | MGKKLDLSKLTDEEAQHVLEVVQRDFDLRRKEEEVLEALKGKIKKESSKRELLSDTAHLNETHCARCLQPYQLLVNSKRQCLECGLFTCKSCGRVHPEEQGWICDPCHLARVVKIGSLEWYYEHVKARFKRFGSAKVIRSLHGRLQGGAGPELISEERSGDSDQTDEDGEPGSEAQAQAQPFGSKKKRLLSVHDFDFEGDSDDSTQPQGHSLHLSSVPEARDSPQSLTDESCSEKAAPHKAEGLEEADTGASGCHSHPEEQPTSISPSRHGALAELCPPGGSHRMALGTAAALGSNVIRNEQLPLQYLADVDTSDEESIRAHVMASHHSKRRGRASSESQIFELNKHISAVECLLTYLENTVVPPLAKGLGAGVRTEADVEEEALRRKLEELTSNVSDQETSSEEEEAKDEKAEPNRDKSVGPLPQADPEVGTAAHQTNRQEKSPQDPGDPVQYNRTTDEELSELEDRVAVTASEVQQAESEVSDIESRIAALRAAGLTVKPSGKPRRKSNLPIFLPRVAGKLGKRPEDPNADPSSEAKAMAVPYLLRRKFSNSLKSQGKDDDSFDRKSVYRGSLTQRNPNARKGMASHTFAKPVVAHQS [R35V] |

Variants of: B1
Conditions: with rb27a_human RAB27A
Remark: another data set of the same source

| effect of a mutation on the interaction | Variant |
| --- | --- |
| disrupting interaction | MGKKLDLSKLTDEEAQHVLEVVQRDFDLRRKEEEWLEALKGKIKKESSKRELLSDTAHLNETHCARCLQPYQLLVNSKRQCLECGLFTCKSCGRVHPEEQGWICDPCHLARVVKIGSLEWYYEHVKARFKRFGSAKVIRSLHGRLQGGAGPELISEERSGDSDQTDEDGEPGSEAQAQAQPFGSKKKRLLSVHDFDFEGDSDDSTQPQGHSLHLSSVPEARDSPQSLTDESCSEKAAPHKAEGLEEADTGASGCHSHPEEQPTSISPSRHGALAELCPPGGSHRMALGTAAALGSNVIRNEQLPLQYLADVDTSDEESIRAHVMASHHSKRRGRASSESQIFELNKHISAVECLLTYLENTVVPPLAKGLGAGVRTEADVEEEALRRKLEELTSNVSDQETSSEEEEAKDEKAEPNRDKSVGPLPQADPEVGTAAHQTNRQEKSPQDPGDPVQYNRTTDEELSELEDRVAVTASEVQQAESEVSDIESRIAALRAAGLTVKPSGKPRRKSNLPIFLPRVAGKLGKRPEDPNADPSSEAKAMAVPYLLRRKFSNSLKSQGKDDDSFDRKSVYRGSLTQRNPNARKGMASHTFAKPVVAHQS [R35W] |

Source: IntAct's records for PubMed 12897212
